Assay results taken from patent US6994974B1, “Intracellular amyloid-beta binding (ERAB) polypeptide-related assays” (The trustees of Columbia University in the city of New York, priority 1997, dated 2006).

Experiments:
TrcHis-ERAB polypeptide = molecular target: T1, TrcHis-ERAB polypeptide (Homo sapiens, UniProt Q99714); assay: Binding of ^125I-amyloid-beta peptide (1–40) to TrcHis-ERAB polypeptide adsorbed to microtiter wells; details: unlabelled competitor at 10 μM; tracer 100 nM; FIG. 2E
T1 construct: made in house; host or cells: E. coli
T1 sequence (Q99714 1-261): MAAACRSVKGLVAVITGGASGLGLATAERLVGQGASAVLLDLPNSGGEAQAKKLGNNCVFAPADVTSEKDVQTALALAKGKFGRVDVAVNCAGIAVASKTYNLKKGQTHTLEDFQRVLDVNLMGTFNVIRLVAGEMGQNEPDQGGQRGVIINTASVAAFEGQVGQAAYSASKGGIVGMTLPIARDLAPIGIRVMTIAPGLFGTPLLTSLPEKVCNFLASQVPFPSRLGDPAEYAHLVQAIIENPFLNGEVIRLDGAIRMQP
Procedure: FIGS. 2A, 2B, 2C, 2D, 2E, 2F, and 2G. […] FIG. 2A. SDS-PAGE (12%; reduced) followed by immunoblotting of TrcHis-ERAB polypeptide (FIG. 2A, lane 1; 2 μg) and TrcHis-chloramphenicol acetyltransferase (CAT; FIG. 2A, lane 2; 2 μg) fusion proteins using anti-ERAB polypeptide IgG (3 μg/ml). […] FIGS. 2B and 2C. […] Binding was analyzed by nonlinear least squares analysis using the method of Klotz and Hunston (60). FIG. 2E. […] FIGS. 2F and 2G. […] 0 indicates wells coated with albumin alone. […] Control TrcHis-CAT construct (Invitrogen) was also used to transform E. coli and the fusion protein was purified as above. Antibody to ERAB polypeptide was prepared by immunizing rabbits with ERAB polypeptide-derived peptides, corresponding to residues 100–116 and 133–147, conjugated to keyhole limpet hemocyanin. […] (for ERAB polypeptide) or overnight at 4° C. […] Unbound radioactivity was removed by washing wells five times with ice cold phosphate-buffered saline containing Tween 20 (0.05%), and bound radioactivity was eluted by incubation with Nonidet P-40 (1%).

[1] = system: ERAB polypeptide in neuroblastoma cells; assay: Cellular distribution of ERAB polypeptide in neuroblastoma cells by immunofluorescence; assay type: cell-based, human; details: peptide added to neuroblastoma cells; amyloid-beta peptide (1–42) 1 μM; FIGS. 4F, 4G
Procedure: FIGS. 4A, 4B, 4C, 4D, 4E, 4F, 4G, 4H, and 4I. Expression of ERAB polypeptide in cultured cells: localization to the endoplasmic reticulum and change in distribution following addition of amyloid-beta peptide. FIG. 4A. Immunoblotting of ERAB polypeptide in human neuroblastoma SK-N-SH (FIG. 4A, lane 1) and HeLa (FIG. 4A, lane 2) cells. Cell extracts (50 μg protein/lane) were subjected to immunoblotting using anti-ERAB polypeptide IgG (3 μg/ml). FIGS. 4B, 4C, and 4D. […] Scale bar=25 μm. FIG. 4E. Subcellular fractionation of ERAB nucleic acid-transfected human neuroblastoma cells. Transfected cells (5×10^8) were pelletted and fractionated in a series of sucrose steps (38%, 30% and 20%) by ultracentrifugation (100,000 for 3 hrs). […] Neuroblastoma cells were incubated in buffer alone or in the presence of amyloid-beta peptide (1–42; 1 μM), and the distribution of ERAB polypeptide was determined by immunofluorescence with anti-ERAB polypeptide IgG. […]
These observations also posed an apparent paradox, for, how could amyloid-beta peptide, most of which is extracellular, interact with a polypeptide associated with endoplasmic reticulum? […] Second, it was determined that ERAB polypeptide became associated with amyloid-beta peptide, and that amyloid-beta peptide-induced effects on ERAB polypeptide were not likely mediated by an indirect mechanism. […]

| Substance | Competition for ^125I-amyloid-beta peptide (1–40) binding to TrcHis-ERAB polypeptide (TrcHis-ERAB polypeptide) | Change in cellular distribution of ERAB polypeptide [1] |
| --- | --- | --- |
| amyloid-beta peptide (1–20): synthetic amyloid-beta peptide (1–20) | blocked binding |  |
| amyloid-beta peptide (1–42): exogenous amyloid-beta peptide (1–42) |  | marked change in the cellular localization |
| amyloid-beta peptide (25–35): synthetic amyloid-beta peptide (25–35) (GSNKGAIIGLM) | had no effect |  |
| Arg-Gly-Asp-Ser (RGDS) | had no effect |  |
